We go through three molecules from PMC9503459, “Antifungal Activity, Structural Stability, and Immunomodulatory Effects on Human Immune Cells of Defensin from the Lentil Lens culinaris” (Membranes, 2022).

No end group written: not given here. Some results are limits rather than exact numbers.

Series [1] has as its system proteolytic enzymes of Candida albicans. Nature of the series: Sensitivity to proteolytic enzymes of Candida albicans (cell lysate, SDS-PAGE). It counts as in vitro ADME. Conditions: for stability to proteolysis by yeast: up to 72 h. How it is done: (§1) For study of Lc-def sensitivity to the clinical isolate of C. albicans, lysates of yeast cells in different concentration and pH were used basically as previously described for rhesus macaque θ-defensin 1 [22]. Cells were inoculated onto modified YPD medium and grown at 37 ℃ for 48 h before reaching the stationary phase of growth. Cells were harvested by centrifugation, washed two times in sterile phosphate buffered saline (PBS), pH 7.2, or sterile 40 mM sodium acetate, pH 4.0, and resuspended in the corresponding buffer to final concentrations of 1 × 10^9 cells/mL or 1 × 10^3 cells/mL. Two freeze-thaw cycles in liquid nitrogen were used for cell disruption, and supernatants were collected following centrifugation. Supernatants (12.5 μL) were mixed with water solutions (37.5 μL) of Lc-def, α-casein, Psd1, or LL-37 in concentration of 0.67 mg/mL and incubated at 37 ℃ for 72 or 24 h in the case of high or low cell concentration, respectively. To study the possible influence of Lc-def and Psd1 on the degradation process, supernatants (12.5 μL) were mixed with both α-casein or LL-37 in concentration of 1 mg/mL (25 μL) and Lc-def or Psd1 in concentration of 2 mg/mL (12.5 μL). As negative controls, α-casein and peptides were mixed with buffers as well as supernatants were mixed with water without the proteins. The samples were mixed with sample buffer without β-mercaptoethanol (BME), heated at 100 ℃ for 2 min, and analyzed by sodium dodecyl sulfate polyacrylamide gel electrophoresis (SDS-PAGE). Some independent experiments were performed in each case.

Series [2] shares this test system. The series is described as follows: Influence of defensins on degradation of proteins by C. albicans lysate. Format: biochemical. Conditions: C. albicans lysate 10^3 cells/mL, pH 7.2, up to 24 h, SDS-PAGE. On the procedure:
as §1

The nature of series [3]: CD spectroscopy, secondary structure at different pH and temperature. It counts as physicochemical. To be noted: far-UV CD, 30 µM, 10 mM phosphate buffer pH 7.4. How it is done: Circular dichroism spectra were recorded at different temperatures using a J-810 spectropolarimeter (Jasco, Hachioji, Tokyo, Japan) in a 0.1 cm path length quartz cell (Hellma GmbH and Co. KG, Mullheim, Germany) in the 190–250 nm range 0.2 using solutions of Lc-def in 10 mM phosphate buffer, pH 7.4, or 150 mM sodium chloride, pH 2.5, simulated gastric fluid, at a concentration of 30 µM. Lysolipids were added at final concentration of 1 mM.

A further series relates to C. albicans. To be noted: at 20 μM; cited from earlier work. How it is done: Here, we investigated an ability of Lc-def to inhibit the growth of clinical isolates of Candida albicans, C. krusei, and C. glabrata. An antifungal activity against Candida species has been shown previously for some plant defensins. For example, the pea defensin Psd1 at the concentration of 20 μM and PvD1 from the common bean at 18.4 μ ...

For series [4], the system named is pepsin, trypsin, α-chymotrypsin. Nature of the series: Simulated gastrointestinal digestion in vitro. It counts as in vitro ADME, porcine pepsin and trypsin, bovine α-chymotrypsin. Conditions: pepsin, 0.1 M HCl pH 2.0 (data not shown). From the text:
Digestive enzymes (porcine pepsin and trypsin, bovine α-chymotrypsin), model protein substrate bovine α-casein, and secondary anti-rabbit IgG polyclonal goat antibodies conjugated to HRP and 3,3′,5,5′-tetramethylbenzidine (TMB) substrates were purchased from Sigma-Aldrich (St. Louis, MO, USA). Synthetic lysophospholipids (lyso-palmitoyl phosphatidylcholine (LPPC), lyso-palmitoyl phosphatidylglycerol (LPPG)) were purchased from Avanti Polar Lipids (Alabaster, AL, USA).
Sensitivity of Lc-def to digestive enzymes was examined by simulation of its gastrointestinal digestion in vitro. Gastric digestion was performed for 2 h, using 50 ng of pepsin per 1 μg of preheated at 100 °C for 30 min and intact Lc-def in 0.1 M HCl, pH 2.0. For duodenal digestion, the pH of the mixture resulting from gastric digestion was adjusted to 8.0 by addition of ammonium bicarbonate. The obtained mixture was incubated for 24 h at 37 °C with 2.5 ng of trypsin and 10 ng of α-chymotrypsin per 1 μg of the defensin. The degree of proteolysis was monitored by SDS-PAGE and RP-HPLC. Gel analysis was performed using Gel Doc XR^+ imaging system (Bio-Rad, Hercules, CA, USA) and Image Lab Software v.6.1.0 (Bio-Rad, Hercules, CA, USA). Some independent experiments were performed in each case. The experiment with α-casein was carried out for comparison.

Setting [5] is: C. albicans lysate 10^9 cells/mL, 40 mM sodium acetate pH 4.0, 37 °C, SDS-PAGE.

Turning to `CC[C@H](C)[C@H](NC(=O)[C@H](CCCCN)NC(=O)[C@H](CCC(=O)O)NC(=O)[C@H](CCCCN)NC(=O)[C@H](CO)NC(=O)[C@H](CCCCN)NC(=O)[C@H](CCCNC(=N)N)NC(=O)[C@H](Cc1ccccc1)NC(=O)[C@H](Cc1ccccc1)NC(=O)[C@H](CC(=O)O)NC(=O)CNC(=O)[C@H](CC(C)C)NC(=O)[C@@H](N)CC(C)C)C(=O)NCC(=O)N[C@@H](CCCCN)C(=O)N[C@@H](CCC(=O)O)C(=O)N[C@@H](Cc1ccccc1)C(=O)N[C@@H](CCCCN)C(=O)N[C@@H](CCCNC(=N)N)C(=O)N[C@H](C(=O)N[C@H](C(=O)N[C@@H](CCC(N)=O)C(=O)N[C@@H](CCCNC(=N)N)C(=O)N[C@H](C(=O)N[C@@H](CCCCN)C(=O)N[C@@H](CC(=O)O)C(=O)N[C@@H](Cc1ccccc1)C(=O)N[C@@H](CC(C)C)C(=O)N[C@@H](CCCNC(=N)N)C(=O)N[C@@H](CC(N)=O)C(=O)N[C@@H](CC(C)C)C(=O)N[C@H](C(=O)N1CCC[C@H]1C(=O)N[C@@H](CCCNC(=N)N)C(=O)N[C@H](C(=O)N[C@@H](CCC(=O)O)C(=O)N[C@@H](CO)C(=O)O)[C@@H](C)O)C(C)C)[C@@H](C)CC)C(C)C)[C@@H](C)CC` [LL-37, reference compound], the remaining at 24 h, 0.5 mg/mL in series [1] (Candida albicans cell lysate supernatant (1 × 10^3 cells/mL), C. albicans lysate 10^3 cells/mL, pH 7.2, 37 °C, 24 h, densitometric gel analysis, read-out: intact peptide present in the hydrolysate) was around 30%.

“Psd1: pea Pisum sativum defensin (UNIPROT P81929), recombinant (KTCEHLADTYRGVCFTNASCDDHCKNKAHLISGTCHNWKCFCTQNC; ends and bridges not checked; cysteine pairing not given here; UniProt P81929 1-46, looked up) [reference compound]”: the “influence on the rate of α-casein degradation” value in series [2] is reported as “but not Psd1 decreased the rate of α-casein degradation”. Besides, in series [3], the “Random, %” value was determined as 30.7%; the “α-Helix, %” value is listed as 14.8%; the “β-Sheet, %” value worked out at 31.8%; the “β-Turn, %” value amounted to 22.8%. Besides, in the series with C. albicans, the “growth inhibition of C. albicans” value was 100%. In addition, the “stability to proteolysis by yeast” value in series [1] (setting [5]) is listed as “stable”. In series [1] (C. albicans lysate 10^9 cells/mL, PBS pH 7.2, 37 °C, SDS-PAGE, densitometry, immunoblotting), the “stability to proteolysis by yeast” value was “stable”.

B1: α-casein: model protein substrate bovine α-casein (protein, UniProt P02662 16-214, looked up)
Alpha-S1-casein: RPKHPIKHQGLPQEVLNENLLRFFVAPFPEVFGKEKVNELSKDIGSESTEDQAMEDIKQMEAESISSSEEIVPNSVEQKHIQKEDVPSERYLGYLEQLLRLKKYKVPQLEIVPNSAEERLHSMKEGIHAQQKEPMIGVNQELAYFYPELFRQFYQLDAYPSGAWYYVPLGTQYTDAPSFSDIPNPIGSENSEKTTMPLW
As to B1, the “time to almost complete degradation by pepsin” value in series [4] is recorded as at most 5 min. Moreover, the “time after which the protein band was absent” value in series [1] (C. albicans lysate 10^3 cells/mL, pH 7.2, 37 °C, SDS-PAGE) was at most 8 h. In addition, in series [1] (setting [5]), the “stability to proteolysis by yeast” value is “slow”. Besides, the “time to complete degradation” value in series [1] (C. albicans lysate 10^9 cells/mL, pH 7.2, 37 °C, SDS-PAGE) is reported as at most 2 h.
